Assay results reported in paper PMC3193169 (BMC Biotechnology, 2011).
Where “and” joins values, the source holds several entries; their conditions need not be identical. Equal entries are not always repeated.

Tests used:
Conditions in all cases: both partners purified
[1] = biological target: Staphylococcus aureus enterotoxin B (SEB) toxin (Staphylococcus aureus, strain , UniProt P01552); experiment: SPR
Shiga Toxin 1 (STX-1) = Shiga Toxin 1 (STX-1) (Stx1 (phage H30 of Escherichia coli), …, UniProt P10149;P69178); experiment: Luminex fluid array direct binding assay
Sequence of Shiga Toxin 1 (STX-1) (P10149 23-315, chain 1 of 2): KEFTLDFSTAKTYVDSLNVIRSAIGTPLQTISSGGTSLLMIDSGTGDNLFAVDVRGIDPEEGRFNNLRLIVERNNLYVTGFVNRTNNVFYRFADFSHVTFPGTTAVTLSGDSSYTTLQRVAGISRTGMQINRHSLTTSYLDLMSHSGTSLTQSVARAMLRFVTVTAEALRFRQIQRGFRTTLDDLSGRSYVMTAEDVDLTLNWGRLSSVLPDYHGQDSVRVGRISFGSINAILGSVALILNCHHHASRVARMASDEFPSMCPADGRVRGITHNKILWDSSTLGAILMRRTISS
Sequence of Shiga Toxin 1 (STX-1) (P69178 21-89, chain 2 of 2): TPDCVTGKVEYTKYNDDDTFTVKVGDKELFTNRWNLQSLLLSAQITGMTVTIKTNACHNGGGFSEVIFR

[2] = biological target: staphylococcal enterotoxin D (SED) (Staphylococcus aureus, strain , UniProt P20723); experiment: Luminex fluid array direct binding assay
[3] = biological target: staphylococcal enterotoxin A (SEA) (Staphylococcus aureus, strain , UniProt P0A0L2); experiment: Luminex fluid array direct binding assay

B1: anti-SEB single domain antibody (sdAb) A3 (VHH)
VHH: EVQLVESGGGLVQAGDSLRLSCTASGRTFSRAVMGWFRQAPGKEREFVAAISAAPGTAYYAFYADSVRGRFSISADSAKNTVYLQMNSLKPEDTAVYYCAADLKMQVAAYMNQRSVDYWGQGTQVTVSS
In the case of B1, the koff [1] is reported as 6e-05 s⁻¹ and 2.2e-05 s⁻¹ and the kon [1] is reported as 100000 M⁻¹ s⁻¹ and 290000 M⁻¹ s⁻¹.

B2: biotinylated sdAb A3 (VHH)
VHH: EVQLVESGGGLVQAGDSLRLSCTASGRTFSRAVMGWFRQAPGKEREFVAAISAAPGTAYYAFYADSVRGRFSISADSAKNTVYLQMNSLKPEDTAVYYCAADLKMQVAAYMNQRSVDYWGQGTQVTVSS
B2: no binding (Shiga Toxin 1 (STX-1)); no binding [2]; no binding [3]. For the same binder, the Kd [1] was 390 pM, the koff [1] was 2.8e-05 s⁻¹ and the kon [1] was 72000 M⁻¹ s⁻¹.
